# Like-named read-outs stand apart in the source and are kept apart here.
# Assays:
# [1] = target: the molecule itself; experiment: cryo-EM structure
# [2] = target: the molecule itself; experiment: cryo-EM structure; remark: listed apart in the source
protein,measurement,setting,value
"FliL of Borrelia burgdorferi (BbFliL) (natural protein, UniProt Q57442 1-178, looked up) MPNKDDDNLDMGDSNVSRKGGLLPDIIIKILQILAIGIFTVAIMIIVSYFVSKMVVSQSGAPSDFPVFSNEYLGKPPMLIWYESIDEIRGNTLDVPPKTFVVKLALGYAENNVNILNELGRQKVRLKDIIREYFSQRTGQEIKNESQIKAEIKARINSILRNGEIKEIALTQIDIFDM",stoichiometry N,[1],4
same,stoichiometry N,[2],10
